The DeepSol protein solubility set

Assay: soluble on expression in E. coli; label from the status in PepcDB or PDB records

| Sequence | soluble on expression in E. coli |
| --- | --- |
| SSIRFYLAPNDADFTVYYTGTDGNWYETKATYKKVSVKKYEVTLPEITIGGAAEIEFKGVHRGPPNTVISAKFDVVGGTTQPEPEPDPAPEPQPAPEPEPGTSVNPAAPTAVDPATAPSCVEKGYINIPDTKGVDYFIGGELKHAGQHFYEGQKASVKVTAKPQNGYQFAAGAKTEWSFDFSGEVKDCSDSSEDPKPAAVEGRHFDAIGHEFAVEADPVDPTKPNAFTAKVTAESHMKYATVRIETDATFLDPQKYNLTLDQIEPGVTLQKRNVNIGNGFITMDVVPVKDGKPVDSAVVPKDAVFTFTNNLSENKNLKIALDVYGANKSTPKPPDIISPPDGAQWVHGRVPNPPMPKRCGLRIAVVADLSTSLKYADSNGFDESKKAANALIDSLAGTPAELGIYNFAGGAPRNPAGSTYGQNPPYISLQSDDGVSRAKSIVSNWNGNGSTNWEAGLKQVAAGNYDVVYFITDGMPTYSSKAPQLGLGGEFVQESALNQAIDAANELKAAGTRVVPIMVDLTVGGKNAQHTTVTQDLVLKNVRFWKRGTSNSEPGLYFQFTNKYVDAASYVGDDTTANFEIAYKNGGFKVWERTSRGRNIDVTRDQSKWTYGPREVKTMGEDISGTGDTIRVEQYSQLAAQMKKIGEELALRCNGVVKVKKRIVDENGRAIEDGVPGWEFTLSAGGQDIIDPGNGDRVRKSLKATSSANEDRGTASWNIMSEQEQQLTLVETQQPGFNLYKRNDKNAVCTETRDGVMKPIEVTNDGEFGFKVKMRAKDKKLSSVSCVVDNYKQPETPPGKLTFKKAQYNGDKIEEIPGLGGATFEIYPSKGDQPDYSAEALYTIKPGQESIEVKTTGTFFLVETKAPKGLNLLAQPVKFEISVDETTKKYKISVGSTSSGQVQAKGEGDKMILTVADTTAGELPKTGG | not soluble |
| MPPDDPSGRHGPRIESFLSKVPVVSSNPLVCPYARKCTYGNKCKFYHPERANGQHMSVTERLMKENQQKKSLGAVKSMQYEMFKNKHAALSRTQSLNVVKQLTENMSQLPPTPESPMQMPRQHMQLQQANSAPWQQHTVVQRHGSSPLTPVNRQMNVYPDMYNMSQQQNHQVLPNQHGVIGGQRPPKMTTTVSQTHLFAPSTAVWGHSELSVGPVNTGSDESLAEVRSRVHFHLCNIFPHDFVESVMAANPEEVNAPVLCELIIRAQKEYRK | not soluble |
| MYMNVLIISDSHGLEEELQTIAKRHEAEVDLMIHCGDSELETRHPALEPYAVVKGNCDFAGDFKDELLLTAGSRKILVTHGHLHGIKQTLLNVYYRAEELGADVICFGHSHIAGSEVLRGKLMINPGSIRLPRVRRTESYAILTLENDAATVRFYDQAGNEIEDLQNRVTLLEHHHHHH | not soluble |
| PNARSQPSKTLFVKGLSEDTTEETLKESFDGSVRARIVTDRETGSSKGFGFVDFNSEEDAKAAKEAMEDGEIDGNKVTLDWAKPKGEGG | soluble |
| MGSDKIHHHHHHMVEMNFKVDAFEGPLDLLLHLIGQLEVDIYDIPMAEITDQYMEFVHTMQEMELDVASEYLVMAATLLAIKSKMLLPKQELEIDYDTLEEEEDPRDALVEKLMEYKRFKEAAKELKEKEAERSFYFSKPPMDLAEYDDGTKVAELDVSLNDMLSAFNKMLRRKKLNKPLHTRITTQEISIDQRMDSVLEKLNLQVNHRLRFDELFEEQTKEQLVVTFLALLELMKRKLVEVEQAESFADLYVQGKGEEIS | not soluble |
| MNIAALLSGGVDSSVVVHLLCEQGYKPTLFYIKIGMDGAEYMDCSAEEDIEMSTAIARKYGLSLEVVDLHKEYWENVAAYAIDKIKKGLTPNPDVMCNKLIKFGCFEQQVGKNFDFTATGHYATTIRQDGKTWLGTAKDPVKDQTDFLAQIDYLQVSKLMFPIGGLMKQEVREIASRAGLPSARRKDSQGICFLGKINYNDFVRRFLGEREGAIIELETGKKVGTHRGYWFHTIGQRKGLGLSGGPWFVIKKDVEENIIYVSHGYGVETQFGSEFRINDFHFITENPWKDAGKEIDITFKIRHTPEFTKGKLVQEEGGQFRILSSEKLQGIAPGQFGVIYDEEAGICVGSGEITRLEHHHHHH | soluble |
| MGSDKIHHHHHHMKLLILGNHTCGNRGDSAIMRGLLDAIRQQAPEAEMDVMSRFPVSSAWLQGRPIIADPLYQLSQKQQAAAGLNGRVKKVLRRRFQHKILLSKVAQEGSLRNFAIAPEFAEFAQFIAQYDAVIQVGGSNYVDLYGLTHFEYPLCAFMANKPIYMVGHSVGPFQNPDFNQLANYVFGRTSALILRETVSRDLMTAAQIDTRKVEQGVDTAWLVERRHDEFVASYAVQHWLDVTARRKTVAITLRDLEPFDKRLGTTQQAYEQAFAQVVNRLIADGYQVLALSTCTSIDRYNRDDRMVALRMAKYVNDSENFHIAMDELNDVEIGKILASCVLTIGTRLHSAIISMNFGTPAIAINYEHKSAGIMQQLGLAELAIDIRHLLNGSLQSVVADTLNQLPALKAKVANAVTEERAKGFTMIKSVLDRIREAQ | not soluble |
| MRIILLGAPGAGKGTQAQFIMEKYGIPQISTGDMLRAAVKAGSELGLKAKEIMDAGKLVTDELVIALVKERITQEDCRDGFLLDGFPRTIPQADAMKEAGIKVDYVLEFDVPDELIVERIVGRRVHAASGRVYHVKFNPPKVEDKDDVTGEELTIRKDDQEATVRKRLIEYHQQTAPLVSYYHKEADAGNTQYFKLDGTRNVAEVSAELATILG | not soluble |
| MLRFRCILSTSRSIMSGVKEFDYLVIGGGSGGIASARRAREFGVSVGLIESGRLGGTCVNVGCVPKKVMYNCSLHAEFIRDHADYGFDVTLNKFDWKVIKKSRDEYIKRLNGLYESGLKGSSVEYIRGRATFAEDGTVEVNGAKYRGKNTLIAVGGKPTIPNIKGAEHGIDSDGFFDLEDLPSRTVVVGAGYIAVEIAGVLANLGSDTHLLIRYDKVLRTFDKMLSDELTADMDEETNPLHLHKNTQVTEVIKGDDGLLTIKTTTGVIEKVQTLIWAIGRDPLTKELNLERVGVKTDKSGHIIVDEYQNTSAPGILSVGDDTGKFLLTPVAIAAGRRLSHRLFNGETDNKLTYENIATVVFSHPLIGTVGLTEAEAVEKYGKDEVTLYKSRFNPMLFAVTKHKEKAAMKLVCVGKDEKVVGVHVFGVGSDEMLQGFAVAVTMGATKKQFDQTVAIHPTSAEELVTMRGGVKPE | not soluble |
| METNFIGDDYGPLFHYQYRLIVIGDSTVGKSSLLRYFTEGKMAEISDPTVGVDFYARMIELRPGYRVKLQLWDTAGQEKFRSITKSYYRNSVGVLAIYDTTNRESFEHVENWVKEAALNLGGPSPSKCVFQLVGTKSDMDSQRQVNYEEGEYFAKYHKMKFIETSSRTGDNVNEAFHMIAQEIQNRVDDGELRPVDGWEGLKTGIMRSQSVCLSERSFPQNSSAGACGC | not soluble |
| MKSGVIPSSAVGQKINEWYRYIRTFSVPDAEVLKAEIQQELKHMQHDSNLLLYYSLMEFRHQLMLDYLEPLEKLNIEDQPSLSELSRNIDSNQADLKGLLDYYVNFFRGMYEFDKREFISAITYYKQAEKKLSFVADHIERAEFYFKIAEAYYYMKQTYFSLINIKNAYEIYVEQETYNVRIIQCHFVFGVNLMDERNFEQAARHFKLALNMAQAEQKAQLVGRAYYNLGLCYYNQDLLDPAIDYFEKAVSTFESSRIVNSLPQAYFLITLIYYKQGKHDKASEYHKRGYEYAKETDDADYAVKFEFLQSLYLDQPNEEGIERCFQYLKNKNMYADIEDLALEVAKYYYEQKWFKLSASYFLQVEEARKQIQRSEGLYEIEI | soluble |
| MLDKIIEIIMTILPFLGNRKKRKAMAQDVKEFSELVKDQYTFLMEQLEKVLKDYFDLSARVKEMHTEIFSLREQLAQAATLQCVNKECLQRTQSEASISEA | not soluble |
| MAHHHHHHMSDVSIYALRGTSALYEVLGVSRNATQREIRQGYYRLAVLYHPDKNPEGSDIFKEVCFAHGILSDPEQRALYDSGTLRAELESRARACDPSMDPGVELSPEDLRVFVDRVRQTQEANRQVQSTFELRREEEMKRRAEFDAKNPSFKAEYEQARHLRQHGCRGSTSAAHARASATADLSKTVPPKVRTSAEVLAELQREEEERLYGNPGIGSVDSSSSKRAESDGLSTKHHMMSHYRATHREASGAESLSNSYSGGSTAATVRRRQLETTRLPFVRAHCETPQYSETISATVQAYANYDYLTFVEGGSMDHGELEGAIMADALGNYDRHH | not soluble |
| MAGDPMTSLTYLQGYPEHLLAQVRALIAEQRLGAVLEKRYPGAHDYATDKALYHYTQELKSQFLRNAPPINKVMYDSKIHVLKNALGLHTAVSRVQGGKLKAKAEIRVATVFRNAPEPFLRMIVVHELAHLKEKDHNKAFYQLCCHMEPQYHQLEFDTRLWLTHQALSAQLEHHHHHH | not soluble |
| MCTVVIDRRPGDPWPLLVAANRDELADRPWLPPARHWPSRPEVIAGLDELAGGTWMGLNDWGVVACVLNREGTLGPLAGRRSRGELVLDALDMADARDAAEALADIDPRAYRPFNLIVADNRDAFWIRHADAEGRAAVEVHPLAEGLTLMTAHDPDDPLDARARAYLPRFRAAPRPDPQLRDGWAPWTHLLGSRDHAVDDGPTAAMCFSLAGGFGTSSSSLIALPAMERIGVDPLYLFAPAPPDQTDYRPVLEHHHHHH | soluble |
| MTPFAEAVRQLRERKGVTQKEMAAAIGVSPAYLSALEHGKRGKPSFDLLQRIAGYFNIIWDEAEELFFLAGSSDPKVVIDTVGLPPQYTAFANRLARDIRKLPPSVVEELSAVLQKSRSCD | not soluble |
| MIDINLIREKPDYVKERLATRDKELVSLVDKVLELDKRRREIIKRLEALRSERNKLSKEIGKLKREGKDTTEIQNRVKELKEEIDRLEEELRKVEEELKNTLLWIPNLPHPSVPVGEDEKDNVEVRRWGEPRKFDFEPKPHWEIGERLGILDFKRGAKLSGSRFTVIAGWGARLERALINFMLDLHTKKGYKEICPPHLVKPEILIGTGQLPKFEEDLYKCERDNLYLIPTAEVPLTNLYREEILKEENLPIYLTAYTPCYRREAGAYGKDIRGIIRQHQFDKVELVKIVHPDTSYDELEKLVKDAEEVLQLLGLPYRVVELCTGDLGFSAAKTYDIEVWFPSQNKYREISSCSNCEDFQARRMNTRFKDSKTGKNRFVHTLNGSGLAVGRTLAAILENYQQEDGSVVVPEVLRDYVGTDVIRPE | soluble |
| MSLNRLDVMILKILAEADRPMGSGRIAELIEERFGEKYSTRSIRYRLQKMEERGLIRRVRRNDRVVGAEITEWGLTMLKTETSSERVGMYISLIEEMAYRCSFDPEVMKGKVVCNISVVKREHLDDFLDAVVETYRAGISPSPLVAVKEDLSDHDVEVGEDEVAVLTVCSVTIDGVLINRGIPVTPVCGGLLYLEDGEPLGMQEYIKYEGSTVDPLHVFVAKGMTQVERVLETGTGLVPANVRYVPWAALEDVEHVERELEKADIRGIVDVPKVEGEILGIPLPPRSLGIVAYGGLVPVALLEERGISTRTYPTRTLVEYSSLEDARRYEGHHHHHH | soluble |
| MIAMIVKGGLAMAISNGHVSFKRPAWLGDSITANNGLATVHYHDILAADWDVERSDNLGISGSTIGSRYDAMAVRYQAIPEDADFIAVFGGVNDYGRDQPLGQYGDCDMTTFYGALMMLLTGLQTNWPTVPKLFISAIHIGSDFGGSFSAVTNGLGYRQSDYEAAIAQMTADYGVPHLSLYRDAGMTFAIPAQAAIYSVDTLHPNNAGHRVIARKLQSFLDSHFLEHHHHHH | soluble |
| MLDLHLTMSNSMNYMKAATAYINLEALQHNLQRVKQQAPESKIMAVVKANGYGHGLRHIARHALGADAFGVARIEEALQLRASGVVKPILLLEGFYSPGDLPVLVTNNIQTVVHCEEQLQALEQAQLETPVMVWLKVDSGMHRLGVRPEQYQDFVARLHQCENVAKPLRYMSHFGCADELDKSTTVEQTELFLSLTQGCQGERSLAASAGLLAWPQSQLEWVRPGIIMYGVSPFVEKSAVQLGYQPVMTLKSHLIAVREVKAGESVGYGGTWTSQRDTKIGVIAIGYGDGYPRTAPNGTPVVVNGRRVPIAGRVSMDMLTVDLGPDACDRVGDEAMLWGNELPVEEVAAHIGTIGYELVTKLTSRVEMSYYGAGV | not soluble |
